What was measured:
[1] = biological target: T1, activin-A (Mus musculus, UniProt Q04998); assay: Serum activin-A levels in inh-KO mice (ELISA); format: in vivo; conditions: single dose 30 mg/kg SC
T1 construct: from tissue; host or cells: serum of inhibin-alpha knockout (inh-KO) mice and wild-type littermates
T1 sequence (Q04998 309-424): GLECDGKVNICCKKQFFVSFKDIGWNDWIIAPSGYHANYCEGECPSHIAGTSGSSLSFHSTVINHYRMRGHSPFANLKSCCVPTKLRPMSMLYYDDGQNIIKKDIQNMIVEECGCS
Experimental: (§1) 12-week-old female and 8-week-old male inh-KO mice with fully established ovarian or testicular tumors received a single injection of PBS or sActRIIB (30 mg/kg, SC). As a control, age-matched wild-type littermates received a single injection of PBS. Ovarian and testicular organ weights were determined by necropsy 14 days after the injection.
All serum samples from ovarian cancer patients and healthy subjects were collected under informed consent and were purchased from Bioreclamation, Inc. The serum samples were diluted in buffer (DY995, R&D Systems) and pretreated overnight at 4° C. with 4 M urea (Sigma) to dissociate any protein bound to activin-A. The samples were then transferred to 96 well plates pre-coated with an activin-A monoclonal antibody. After 2 hr incubation at room temperature and a washing step (0.05% Tween 20 in DPBS), a biotin-labeled activin-A monoclonal antibody was added for 1 hr at room temperature. […] An acidic stopping solution (KPL) was added and the degree of enzymatic turnover of the substrate was determined by wavelength absorbance measurement at 450 nm. The absorbance measured is directly proportional to the concentration of activin-A present. A standard curve of absorbance versus activin-A concentration was used to determine the amount of Activin-A in the test sample. Serum activin-A levels in inh-KO mice were measured by using ELISA.

[2] = test system: VEGF; assay: VEGF release into culture medium (ELISA); format: cell-based, human; conditions: TOV21G, MRC-5, CCD-Lu and TPH-1 cells treated with activin-A, without or with sActRIIB; FIG. 17A
Experimental: The serum VEGF levels in inh-KO mice were measured by using immunoassay kit (R&D Systems), and the levels of human VEGF and Ang-1 in cell line culture medium were quantified using ELISA kits purchased from Invitrogen (VEGF) and R&D Systems (Ang-1), by following the manufacturers' recommended protocols.

[3] = test system: Ang-2 mRNA; assay: Northern blot of Ang-2 mRNA in gonadal tumors of inh-KO mice; format: in vivo, mouse; conditions: ovarian and testicular tumors of inh-KO mice; FIG. 8C
Experimental: as §1
Total RNA was isolated from individual tissue samples after homogenization in Trizol (Invitrogen). A pool of 10 μg RNA for each group containing equal amounts of total RNA isolated from individual animals was subjected to Northern blot analysis. The northern probes used for βA and Ang-2 were generated by using RT-PCR (Phusion, Biolabs). βA primer set: 5′-CCCTTGCTTTGGCTGAGAGGA-3′ and 5′-TC ACA GGT CGT CGT AGG TCG-3′; Ang-2 primer set: 5′-TGT GCC GGG GAG AAG AG and 5′-TACAGTAGTGGGTTGAGGTTC-3′. To normalize the expression, northern blot membranes were re-probed with β-actin.

[4] = test system: caspase-3; assay: Active caspase-3 immunostaining in TOV-21G xenograft tumor sections; format: in vivo, mouse; conditions: FIG. 15C
Experimental: 5×10^6 TOV-21G ovarian cancer cells were implanted subcutaneously into individual female athymic nu/nu mice (Harlan). Treatment was initiated at day 12 after tumor implantation, when the average tumor volume reached approximately 150 mm^3. The mice received PBS, sActRIIB (30 mg/kg, SC, 1×/week) or activin-A antibody (30 mg/kg, SC, 2×/week). In a separate chemotherapy combination experiment, the mice were treated with PBS, sActRIIB (10 mg/kg, SC, 1×/week), 5-FU (50 mg/kg, IP, 3 cycles, 4 daily injections per cycle) or sActRIIB and 5-FU combination at the same doses above.
Zinc-formalin fixed paraffin tumor tissue sections of 4 μm in thickness were prepared. The sections were subjected to antigen retrieval by microwave 3 min in Unmask solution (Vector H-3300) followed by incubation in 10 μg/ml Proteinase-K for 20 min and in 1% H2O2 in dH2O for 10 min at room temperature. The sections were further incubated in 0.1% Tween-20 in PBS for 3 min to permeabilize the cell membrane and in goat serum for 30 min to block non-specific binding. The sections were then incubated at room temperature with specific primary antibody for 3 hours followed by incubation in biotinylated or fluorescently labeled secondary antibody. […] The immunostained tissue sections were analyzed and photographed using a Nikon Eclipse 90i microscope equipped with DS-Ril camera. […]

[5] = test system: caspase-3; assay: Active caspase-3 immunostaining in gonadal tumor sections of inh-KO mice; format: in vivo, mouse; conditions: ovarian and testicular tissue sections of inh-KO mice, regions of residual tumor cells; FIG. 9
Experimental: as §1
Zinc-formalin fixed paraffin tumor tissue sections of 4 μm in thickness were prepared. The sections were subjected to antigen retrieval by microwave 3 min in Unmask solution (Vector H-3300) followed by incubation in 10 μg/ml Proteinase-K for 20 min and in 1% H2O2 in dH2O for 10 min at room temperature. The sections were further incubated in 0.1% Tween-20 in PBS for 3 min to permeabilize the cell membrane and in goat serum for 30 min to block non-specific binding. The sections were then incubated at room temperature with specific primary antibody for 3 hours followed by incubation in biotinylated or fluorescently labeled secondary antibody. Substrate developed in Vector SG kit (SK-4700) or DAB and nuclear-counterstained in Vector Fast Red (H-3403) or in hematoxylin. The immunostained tissue sections were analyzed and photographed using a Nikon Eclipse 90i microscope equipped with DS-Ril camera. […]

[6] = test system: IGFBP-1; assay: Western blot of IGFBP-1 in ovarian tumors of inh-KO mice; format: in vivo, mouse; conditions: FIG. 8D
Experimental: as §1
Protein extracts were prepared from cell cultures or tissues in T-PER tissue protein extraction reagent (Pierce) containing a mixture of protease inhibitors (Roche). A pool of 50 μg total protein for each group containing equal amounts of protein extract isolated from individual animals was separated by NuPAGE 4-12% Bis-Tris gel (Invitrogen) and transferred to PVDF. The membranes were probed with primary antibodies against total Smad2, p-Smad2 or E-cadherin (1:1000; Cell Signaling), endoglin, osteopontin (1:500; R&D Systems), IGFBP-1, IGFBP-2 (1:500; Abcam) followed by HRP-conjugated secondary antibody (1:2000; Cell Signaling). The membranes were stripped and re-probed with antibody against α-tubulin (1:1000; Cell Signaling).

[7] = test system: activin-A (βA) mRNA; assay: Endogenous activin-A (βA) mRNA in cell cultures (real-time RT-PCR); format: cell-based, human, bovine; conditions: TOV21G, BAEC, MRC-5, CCD-Lu, U937 and THP-1 cultures treated with recombinant activin-A, without or with sActRIIB; FIG. 18

B1: sActRIIB: extracellular domain of human activin type-2B receptor fused to IgG2 Fc, expressed in CHO cells; sequence in the 26th table (protein)
chain: ETRWCIYYNANWELERTNQGLERCEGEQDKRLHCYASWRNSSGTIELVKKGCWLDDFNCYDRQECVATEENPQVYFCCCEGNFCNERFTHLPEAGGPEVTYEPPPTAPTGGGGSVECPPCPAPPVAGPSVFLFPPKPKDTLMISRTPEVTCVVVDVSHEDPEVQFNWYVDGVEVHNAKTKPREEQFNSTFRVVSVLTVVHQDWLNGKEYKCKVSNKGLPAPIEKTISKTKGQPREPQVYTLPPSREEMTKNQVSLTCLVKGFYPSDIAVEWESNGQPENNYKTTPPMLDSDGSFFLYSKLTVDKSRWQQGNVFSCSVMHEALHNHYTQKSLSLSPGK
modifications: left off: a dimerising Fc or GST
[1]; inh-KO mice with established gonadal tumors, within one day after administration, FIG. 2A, 2B
  serum activin-A levels: reduced the elevated activin-A in the inh-KO mice to normal control levels
[1]; inh-KO mice
  duration of activin-A-neutralizing effect: persisted throughout the 14-day study period
[2]
  release of VEGF into the culture medium: blocked completely
[3]
  Ang-2 mRNA expression (Northern blot): inhibited its overexpression
[4]
  active caspase-3 in TOV-21G tumors: profound increases
[5]
  active caspase-3 immunostaining: strong immunostaining of active caspase-3
[6]
  IGFBP-1 induction (Western blot): abolished completely
[7]
  endogenous βA mRNA expression: blocked completely
